Measured values taken from patent publication US20170369590A1 (Genmab, published 2017).

B1: HuMab 005 (antibody, V domains shown)
VH: EVQLVQSGAEVKKPGESLKISCKASGYSFHFYWIGWVRQMPGKGLEWMGSIYPGDSDTRYRPSFQGQVTISADKSISTAYLQWTSLKASDTAIYYCARQRGDYYYFYGMDVWGQGTTVTVSS
VL: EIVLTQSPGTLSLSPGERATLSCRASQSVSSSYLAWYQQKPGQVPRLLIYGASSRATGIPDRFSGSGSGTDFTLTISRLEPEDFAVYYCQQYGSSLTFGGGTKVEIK
notes: also called PC1014-005; TH1014-005
B2: HuMab 060 (antibody, V domains shown)
VH: EVQLVQSGAEVKKPGESLKISCKGSGYRFTSYWIGWVRQMPGKGLEWMGSIYPGDSYTRNSPSFQGQVTISADKSIATAYLQWNSLKASDTAMYYCARHAGDFYYFDGLDVWGQGTTVTVSS
VL: not shown
notes: also called PC1014-060

What was measured:
HER2ECDHis [1] = target: T1, HER2ECDHis (human, UniProt P04626 23-653, biotinylated in the cross-block ELISA (sites not given)); assay: ELISA; competitor 006
T1 construct: range 1-653; expressed in HEK-293F; also called soluble HER2; biotinylated HER2ECDHis

HER2ECDHis [2] = target: T1, HER2ECDHis; assay: ELISA; competitor F5
Description: (§1) Next, the ELISA wells were washed with PBST (PBS supplemented with 0.05% Tween-20 [Sigma-Aldrich, Zwijndrecht, The Netherlands]) and blocked for one hour at room temperature (RT) with PBSTC (PBST supplemented 2% [v/v] chicken serum [Gibco, Paisley, Scotland]). The ELISA wells were then washed with PBST and incubated for one hour at RT with HER2ECDHis serially diluted in PBSTC (0.25-2 μg/mL in 2-fold dilutions). […] The plate was thereafter washed with PBST and incubated for one hour with 0.1 μg/mL Streptavidin-poly-HRP (Sanquin, Amsterdam, The Netherlands) diluted in PBST. After washing, the reaction was visualized through a 15 minutes incubation with 2,2′-azino-bis (3-ethylbenzothiazoline-6-sulfonic acid) (ABTS: one ABTS tablet diluted in 50 mL ABTS buffer (Roche Diagnostics, Almere, The Netherlands)) at RT protected from light. The colorization was stopped by adding an equal volume of oxalic acid (Sigma-Aldrich, Zwijndrecht, The Netherlands). Fluorescence at 405 nm was measured on a microtiter plate reader (Biotek Instruments, Winooski, USA).
(§2) Each HER2 antibody was coated to the ELISA wells at the sub-optimal dose that was determined as described above. After blocking of the ELISA wells, the wells were incubated with the predetermined concentration of 1 μg/mL biotinylated HER2ECDHis in the presence or absence of an excess of a second (competitor) HER2 antibody. The ELISA was then performed as described above. […] Percentage competition was then determined as 100 minus the percentage of inhibition.

HER2ECDHis [3] = target: T1, HER2ECDHis; assay: ELISA; competitor C1
Description: as §1, §2

HER2ECDHis [4] = target: T1, HER2ECDHis; assay: ELISA; competitor Tras
Description: as §1, §2

HER2ECDHis [5] = target: T1, HER2ECDHis; assay: ELISA; competitor 060
Description: as §1, §2

HER2ECDHis [6] = target: T1, HER2ECDHis; assay: ELISA; competitor 059
Description: as §1, §2

HER2ECDHis [7] = target: T1, HER2ECDHis; assay: ELISA; competitor 005
Description: as §1, §2

[8] = target: T2, human epidermal growth factor receptor 2 (HER2), membrane-bound on cells (human, UniProt P04626 23-1255); assay: cell-based or functional assay
[9] = target: T2, human epidermal growth factor receptor …; assay: cell-based or functional assay; remark: listed apart in the source
HER2ECDHis [10] = target: T1, HER2ECDHis; assay: ELISA; competitor 106
Description: as §1, §2

HER2ECDHis [11] = target: T1, HER2ECDHis; assay: ELISA; competitor Pert
Description: as §1, §2

HER2ECDHis [12] = target: T1, HER2ECDHis; assay: ELISA; competitor 111
Description: as §1, §2

[13] = target: T2, human epidermal growth factor receptor …; assay: cell-based or functional assay; remark: listed apart in the source

Row | Binder | % binding vs no competitor (HER2ECDHis [1]) | % binding vs no competitor (HER2ECDHis [2]) | % binding vs no competitor (HER2ECDHis [3]) | % binding vs no competitor (HER2ECDHis [4]) | % binding vs no competitor (HER2ECDHis [5]) | % binding vs no competitor (HER2ECDHis [6]) | % binding vs no competitor (HER2ECDHis [7]) | % cells killed, AU565, anti-kappa-ETA'-conjugated [8] | EC50 of cell kill, AU565, anti-kappa-ETA'-conjugated [8] | % cells killed, A431, anti-kappa-ETA'-conjugated [9] | EC50 of cell kill, A431, anti-kappa-ETA'-conjugated [9] | % binding vs no competitor (HER2ECDHis [10]) | % binding vs no competitor (HER2ECDHis [11]) | % binding vs no competitor (HER2ECDHis [12]) | EC50, fab-CypHer5E internalization, AU565 [13] | Maximal MFI, fab-CypHer5E internalization, AU565 [13]
1 | B1 | 15% | 227% | 157% | 126% | 12% | 22% | 18% | 69.7% | 0.0151 µg/mL | 88.5% | ~0.0101 µg/mL | 54% | 115% | 32% | 0.0214 µg/mL | 95100 MFI
2 | B2 | 6% | 126% | 108% | 106% | 19% | 14% | 30% | 64.3% | 0.0794 µg/mL | 85% | ~0.01 µg/mL | 37% | 99% | 35% | 0.0362 µg/mL | 68200 MFI
